Results: the RNAGym collection of RNA variant scans (doi:10.1073/pnas.2313332121)

B1: TPR t1 (parent)
chain: GACCAAUCUGCCCUCAGAGCUCGAGAACAUCUUCGGAUGCAGAGGAGGCAGGCUUCGGUGGCGCGAUAGCGCCAACGUCCUCAACCUCCAAUGCAUCCCACCACAUGAUGAUGCCUGAAGAGCCUUGGUUUUUUG

Variants of: B1
Assay: polymerase ribozyme fitness, log enrichment relative to wild type (log ratio); higher = more active; in vitro selection for triplet polymerase activity
How it was run: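 PCR was used to build mutant libraries for each subunit of a heterodimeric triplet polymerase ribozyme, which were then transcribed. A single in vitro selection round, in triplicate, used a frozen incubation at −7 °C and recovered extended constructs by gel excision, streptavidin beads and RT-PCR. Fitness is the logarithm of genotype enrichment relative to wild-type enrichment, averaged over replicates with inverse-variance weights. The logarithm is base 2, and after Illumina sequencing only genotypes with ≥10 input reads and ≥1 read per output were kept.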

| Variant | polymerase ribozyme fitness (log ratio) |
| --- | --- |
| G47A G113U | -2.8 |
| G47A G113C | -3.08 |
| A46U C89U G135U | -4.54 |
| G47U G60U | -1.15 |
| G48C A75G | -0.575 |
| A46U C56G G120C | -0.234 |
| G48U A83U C85U | -0.796 |
| G47U C53A C70U U126C | -2.43 |
| A46U U106A | -1.09 |
| A46G C53A C56U | -0.0153 |
| G47C G48A C72U A91C C97U | -3.42 |
| G48A G63U C82G A91U G117C | -5.43 |
| A46U G52C U87G G135U | -1.01 |
| A46U C56A C115U | -2.68 |
| G47U C49U C62U G117U | -5.19 |
| G47U C70U C88U | -3.39 |
| G48U A50G G61A C89U | -1.81 |
| A46U C49G C56U C76U U87A | -1.97 |
| G47A G127C | -2.06 |
| A46C G58C U59A C88G | -2.01 |
| G48U C72U C76U A105U | -3.61 |

| Variant | polymerase ribozyme fitness (log ratio) |
| --- | --- |
| G47U G120C U131G | 0.253 |
| G48C U59C A83C C114A | -2.11 |
| A46G G47A U59A | -0.512 |
| A46U G93U | -2.06 |
| G48A A105C G120A A121C G122U U129A | -3.55 |
| G47U C53A U106C | -0.879 |
| G48C C94G C115U | -3.03 |
| G48C C62A G65U U78C U130C | -4.95 |
| G48U C70G | -4.24 |
| G48U C70A | -2.08 |
| G48U C70U | -1.39 |
| G47C A91C G113C | -2.97 |
| G48A C85G U106C | -1.25 |
| G47U C89U | -3.28 |
| G47C C49A G63U U78C C123G C124U | -4.24 |
| G47U C72U | -1.71 |
| A46U G52U A66G C104U G110A | -5.89 |
| G47U C85U | -1.98 |
| G47A U112A | -0.273 |
| A46U G127C | -2.68 |
| A46U G127U | -2.62 |

| Variant | polymerase ribozyme fitness (log ratio) |
| --- | --- |
| G48A G57A G60U G120A | -0.327 |
| G47C G58A A121G G135U | 0.038 |
| G47U U54C | -3.33 |
| G47U U54A G120A | -0.309 |
| G48C C104U | -0.793 |
| G48A U59A G69C A84U A118C | -3.45 |
| G47U G58A A83C | -2.55 |
| G48A C85G | -2.75 |
| G47A U96G G120U | -1.94 |
| G47A U54C G77A C82A G110A C123A | -3.8 |
| G48C C72U A90G U132A | -0.935 |
| G47U A105C U106A | -1.48 |
| G48C G77U C89U C123U | -0.348 |
| G47A G48C G52U C79U | -3.46 |
| A46U G113U | -3.73 |
| A46G C101A | -0.288 |
| G47A C53U U54C | -1.11 |
| G47C C62G G120C G128A | -5.53 |
| G48A G63A | -1.14 |
| G47A U78A | -1.09 |
| A46C G120A | -0.00915 |

| Variant | polymerase ribozyme fitness (log ratio) |
| --- | --- |
| G47U G48A G52U | -2.97 |
| G47U C101A C104U | -2.34 |
| G48C G71A | -1.65 |
| G48C G71U | -2.47 |
| G48C G110A | -1.41 |
| G48U C49A C89G | -3.48 |
| A46U C62U G113A | -2.45 |
| A46U C76A A84C A100C C124A | -4.99 |
| G47A G93U G113U C123U G135U | -6.04 |
| G48C G52U G60A U109A G110U | -6.29 |
| A46C G71C | -1.14 |
| G48A U87A G120C C124G | 0.521 |
| G48C C62U U87G G110C U116A | -6.41 |
| G48U C72A G113C | -2.2 |
| G48U A84G U116C | -1.79 |
| G47C G69U C72U | -1.29 |
| G47U G51U C124U | -3.46 |
| G47U C53G A105G | -4.47 |
| A46C G69U | -0.0247 |
| A46U G128U | -3.23 |
